The target of the assay is Fbxl17 (UniProt Q9UF56). In words: HA-Sufu IP, Myc-Fbxl17 blot. The note with it: reference: Sufu wild type; sites S342,S346.

Regarding “Sufu (from UniProt Q9UMX1) Sufu S342A/S346A”, the “binding against the reference” value is listed as “stronger”.

The record behind these values is PMC4884786.
